Assay results taken from US20070111258A1, “Compositions and methods for modulating the acute phase response” (priority 2005, published 2007).

Experiments:
UPRE motif [1] = experiment: UPRE luciferase reporter in H2.35 cells; format: cell-based
Procedure: FIG. 10 depicts activation of expression of APR genes in vivo. (A) The nuclear form of CREBH or ATF6 activates expression of the endogenous SAP mRNA in mice. Northern blot analysis of the endogenous SAP mRNA in mice injected with vector expressing the nuclear form of ATF6 (ATF6 p50) or CREBH (CREBH-N). Wild-type C57BL/6J mice at 3 months of age were injected with 80 μg plasmid DNA expressing ATF6 p50, CREBH-N or empty vector DNA through hydrodynamic plasmid DNA tail-vein injection (Miao et al. 2004). Liver samples were collected from mice at 36 hours after injection, and were subjected to Northern blot analysis to detect the murine SAP mRNA levels. Experiments were performed at least 3 times and representative data is shown. (B-C) Nuclear forms of CREBH and ATF6 act synergistically to induce transcription from the human CRP promoter and the UPRE motif. To detect synergistic effects of CREBH and ATF6 on expression of the reporter, vector DNA (15 ng control vector, 10 ng CREBH- and/or 15 ng AFT6-expression vector) was mixed with 100 ng reporter construct and 150 ng pcDNA3-lacZ for transfection of H2.35 cells in one well of a 6-well plate. […]
At 36 h post transfection, transfected cells were lysed and assayed for luciferase and β-galactosidase activity by using a Tropix Luciferase/β-Galactosidase Dual Light. […] Photons were detected in an Optima II Luminator (MGM Instruments). […]

human CRP promoter = experiment: Human CRP promoter luciferase reporter in H2.35 cells; format: cell-based
Procedure: (§1) FIG. 10 depicts activation of expression of APR genes in vivo. (A) The nuclear form of CREBH or ATF6 activates expression of the endogenous SAP mRNA in mice. Northern blot analysis of the endogenous SAP mRNA in mice injected with vector expressing the nuclear form of ATF6 (ATF6 p50) or CREBH (CREBH-N). Wild-type C57BL/6J mice at 3 months of age were injected with 80 μg plasmid DNA expressing ATF6 p50, CREBH-N or empty vector DNA through hydrodynamic plasmid DNA tail-vein injection (Miao et al. 2004). Liver samples were collected from mice at 36 hours after injection, and were subjected to Northern blot analysis to detect the murine SAP mRNA levels. Experiments were performed at least 3 times and representative data is shown. (B-C) Nuclear forms of CREBH and ATF6 act synergistically to induce transcription from the human CRP promoter and the UPRE motif. To detect synergistic effects of CREBH and ATF6 on expression of the reporter, vector DNA (15 ng control vector, 10 ng CREBH- and/or 15 ng AFT6-expression vector) was mixed with 100 ng reporter construct and 150 ng pcDNA3-lacZ for transfection of H2.35 cells in one well of a 6-well plate. The amount of luciferase activity was normalized to the amount of β-galactosidase activity.
FIG. 11 depicts the synergistic interaction of CREBH with ATF6 to activate transcription of the major APR genes. (A) Luciferase reporter analysis of trans-activation effects of CREBH on promoters of the murine SAP gene and the human CRP gene in H2.35 cells. H2.35 cells in a 35 mm collagen-coated plate were co-transfected with a control vector or a CREBH expression vector (0.25 μg), the luciferase reporter (0.6 μg) and pcDNA3-LacZ (0.25 μg), and were then cultured in the absence or presence of Tm (5 μg/ml) for 10 hours. (B) CREBH-DN efficiently suppresses CREBH trans-activation on the murine SAP and the human CRP promoters. H2.35 cells were co-transfected with the luciferase reporter construct and a control vector or a vector expressing CREBH-DN, and were then cultured in the absence or presence of Tm (5 μg/ml) for 10 hours. (C) Interaction between ATF6 and CREBH was determined by IP-Western blot analysis. 293T cells were transfected with a control vector or a vector expressing the nuclear/cleaved form of CREBH, and were then cultured in the absence or presence of Tm for 8 hours. Total cell lysates were immunoprecipated by using an anti-human ATF6 polyclonal antibody or an anti-flag antibody and were then subjected to Western blot analysis by using anti-flag antibody or anti-human ATF6 antibody. Expression levels of CREBH in the transfected cells were determined by Western blot analysis of total cell lysates using the anti-flag antibody (lower panel). (D) Luciferase reporter analysis showing trans-activation effects of the nuclear forms of ATF6 or CREBH on the murine SAP and human CRP promoters in H2.35 cells. H2.35 cells in a 35 mm collagen-coated plate were co-transfected with a vector expressing ATF6 p50 or CREBH-N (0.25 μg), the luciferase reporter (0.6 μg) and pcDNA3-LacZ (0.25 μg). (E-F) Luciferase reporter analysis showing synergistic effects of CREBH and ATF6 on transcriptional induction from the murine SAP promoter (E), and the human CRP promoter (F) in H2.35 cells. […]

murine SAP promoter = experiment: Murine SAP promoter luciferase reporter in H2.35 cells; format: cell-based
Procedure: FIG. 11 depicts the synergistic interaction of CREBH with ATF6 to activate transcription of the major APR genes. (A) Luciferase reporter analysis of trans-activation effects of CREBH on promoters of the murine SAP gene and the human CRP gene in H2.35 cells. H2.35 cells in a 35 mm collagen-coated plate were co-transfected with a control vector or a CREBH expression vector (0.25 μg), the luciferase reporter (0.6 μg) and pcDNA3-LacZ (0.25 μg), and were then cultured in the absence or presence of Tm (5 μg/ml) for 10 hours. (B) CREBH-DN efficiently suppresses CREBH trans-activation on the murine SAP and the human CRP promoters. H2.35 cells were co-transfected with the luciferase reporter construct and a control vector or a vector expressing CREBH-DN, and were then cultured in the absence or presence of Tm (5 μg/ml) for 10 hours. (C) Interaction between ATF6 and CREBH was determined by IP-Western blot analysis. 293T cells were transfected with a control vector or a vector expressing the nuclear/cleaved form of CREBH, and were then cultured in the absence or presence of Tm for 8 hours. Total cell lysates were immunoprecipated by using an anti-human ATF6 polyclonal antibody or an anti-flag antibody and were then subjected to Western blot analysis by using anti-flag antibody or anti-human ATF6 antibody. Expression levels of CREBH in the transfected cells were determined by Western blot analysis of total cell lysates using the anti-flag antibody (lower panel). (D) Luciferase reporter analysis showing trans-activation effects of the nuclear forms of ATF6 or CREBH on the murine SAP and human CRP promoters in H2.35 cells. H2.35 cells in a 35 mm collagen-coated plate were co-transfected with a vector expressing ATF6 p50 or CREBH-N (0.25 μg), the luciferase reporter (0.6 μg) and pcDNA3-LacZ (0.25 μg). (E-F) Luciferase reporter analysis showing synergistic effects of CREBH and ATF6 on transcriptional induction from the murine SAP promoter (E), and the human CRP promoter (F) in H2.35 cells. To detect synergistic effects of CREBH and ATF6 on reporter gene expression, vector DNA (25 ng control vector, 20 ng CREBH- and/or 25 ng ATF6-expression vector) was mixed with 100 ng reporter construct and 150 ng pcDNA3-lacZ for transfection of H2.35 cells in a 35 mm collagen-coated plate.
Plasmids, pME18S, pME-CREBH Full and pME-CRE1H d™ were kindly provided by Dr. Sumio Sugano (Institute of Medical Science, University of Tokyo, Japan) (Omori et al., 2001). Plasmid pFlag-CREBH Full that expresses a full-length CREBH (amino acids 1-455) was constructed by insertion of a PCR product from pME-CREBH Full into expression vector pFlag-CMV-4 between EcoR I and BamH I. Vector pFlag-CMV-4 is designed for stable, cytoplasmic expression of N-terminal flag fusion proteins in mammalian cells (purchased from Sigma-Aldrich). Plasmid pFlag-CREBH-ΔC that expresses the nuclear form of CREBH (amino acids 1-320) was constructed by insertion of a PCR product from pME-CREBH d™ into pFlag-CMV-4 between EcoR I and BamH I. Plasmid pFlag-CREBH-DN that expresses only the CREBH bZIP domain (amino acids 209-320) was constructed by insertion of a PCR product from pME-CREBH Full into pFlag-CMV-4 between EcoR I and BamH I. The reporter plasmid containing the luciferase gene under control of the human CRP gene, pGL3-CRP, was constructed by insertion of a 637 bp fragment containing 5′-flanking and promoter region of the human CRP gene into luciferase reporter vector pGL3-basic (purchased from Promega, Madison, Wis.) between Sac I and Xho I. The 637 bp 5′-flanking fragment of the human CRP gene was amplified from human genomic DNA by using a forward primer: 5′-[…]-3′; and a reverse primer 5′-[…]-3′. The reporter plasmid containing the luciferase gene under control of the mouse SAP gene, pGL3-SAP, was constructed by insertion of an 863 bp fragment containing 5′-flanking and promoter region of the mouse SAP gene into pGL3-basic between Xho I and Hind III. […]

murine SAP mRNA = experiment: Endogenous SAP mRNA in liver after hydrodynamic plasmid DNA tail-vein injection (Northern blot); format: in vivo, mouse; details: wild-type mice; 80 μg plasmid DNA tail vein injection; 36 hours
Procedure: as §1

UPRE motif [2] = experiment: UPRE luciferase reporter analysis in COS7 cells; format: cell-based; details: for activation of luciferase expression from UPRE reporter relative to vector control: absence of Tm
[3] = H2.35 cells, Tm 5 μg/ml 10 hours, endogenous CREBH
[4] = co-expression with ATF6 p50, absence or presence of ER stress
[5] = co-expression with full-length or cleaved CREBH, absence or presence of ER stress

B1: CREBH-DN: dominant negative truncated CREBH, only the bZIP domain (amino acids 209-320), expressed from plasmid pFlag-CREBH-DN (protein, UniProt Q68CJ9 209-320, looked up, fragment)
chain: HCQELVLTEDEKKLLAKEGITLPTQLPLTKYEERVLKKIRRKIRNKQSAQESRKKKKEYIDGLETRMSACTAQNQELQRKVLHLEKQNLSLLEQLKKLQAIVVQSTSKSAQT
modifications: bZIP domain Flag tag
notes: dominant negative truncated CREBH, only the bZIP domain (amino acids 209-320), expressed from plasmid pFlag-CREBH-DN
UPRE motif [1]; co-expression with ATF6 p50
  ATF6-mediated trans-activation on the UPRE reporter: efficiently suppressed ATF6-mediated trans-activation
UPRE motif [1]; co-expression with cleaved CREBH
  CREBH-induced reporter gene expression, UPRE reporter: significantly suppressed the ability for CREBH to induce reporter gene expression
Human CRP promoter; [3]
  luciferase expression from the human CRP promoter in response to ER stress: efficiently suppressed luciferase expression
Human CRP promoter; [4]
  ATF6-mediated trans-activation on the CRP reporter: efficiently suppressed ATF6-mediated trans-activation
Human CRP promoter; [5]
  CREBH-induced reporter gene expression, CRP reporter: significantly suppressed the ability for CREBH to induce reporter gene expression
Murine SAP promoter; [3]
  luciferase expression from the murine SAP promoter in response to ER stress: efficiently suppressed luciferase expression
Murine SAP promoter; [4]
  ATF6-mediated trans-activation on the SAP reporter: efficiently suppressed ATF6-mediated trans-activation
Murine SAP promoter; [5]
  CREBH-induced reporter gene expression, SAP reporter: significantly suppressed the ability for CREBH to induce reporter gene expression

B2: CREBH-N: nuclear/cleaved form of CREBH (amino acids 1-320) expressed from a vector (protein, UniProt Q68CJ9 1-320, looked up, fragment)
chain: MNTDLAAGKMASAACSMDPIDSFELLDLLFDRQDGILRHVELGEGWGHVKDQQVLPNPDSDDFLSSILGSGDSLPSSPLWSPEGSDSGISEDLPSDPQDTPPRSGPATSPAGCHPAQPGKGPCLSYHPGNSCSTTTPGPVIQVPEASVTIDLEMWSPGGRICAEKPADPVDLSPRCNLTVKDLLLSGSSGDLQQHHLGASYLLRPGAGHCQELVLTEDEKKLLAKEGITLPTQLPLTKYEERVLKKIRRKIRNKQSAQESRKKKKEYIDGLETRMSACTAQNQELQRKVLHLEKQNLSLLEQLKKLQAIVVQSTSKSAQT
Murine SAP mRNA
  murine SAP mRNA in the liver compared to control vector: higher levels of the murine SAP mRNA
Human CRP promoter; H2.35 cells
  expression of luciferase from the CRP reporter compared to the controls: ~11 fold
Murine SAP promoter; H2.35 cells, without Tm
  expression of luciferase from the SAP reporter relative to vector control: approximately 16 fold
UPRE motif [2]
  activation of luciferase expression from UPRE reporter relative to vector control: approximately 18 fold

B3: CREBH-F: flag-tagged full-length CREBH (amino acids 1-455) expressed from a transfected vector (protein, UniProt Q68CJ9 1-461, looked up)
chain: MNTDLAAGKMASAACSMDPIDSFELLDLLFDRQDGILRHVELGEGWGHVKDQQVLPNPDSDDFLSSILGSGDSLPSSPLWSPEGSDSGISEDLPSDPQDTPPRSGPATSPAGCHPAQPGKGPCLSYHPGNSCSTTTPGPVIQVPEASVTIDLEMWSPGGRICAEKPADPVDLSPRCNLTVKDLLLSGSSGDLQQHHLGASYLLRPGAGHCQELVLTEDEKKLLAKEGITLPTQLPLTKYEERVLKKIRRKIRNKQSAQESRKKKKEYIDGLETRMSACTAQNQELQRKVLHLEKQNLSLLEQLKKLQAIVVQSTSKSAQTGTCVAVLLLSFALIILPSISPFGPNKTESPGDFAPVRVFSRTLHNDAASRVAADAVPGSEAPGPRPEADTTREESPGSPGADWGFQDTANLTNSTEELDNATLVLRNATEGLGQVALLDWVAPGPSTGSGRAGLEAAGDEL
modifications: full-length Flag tag
notes: flag-tagged full-length CREBH (amino acids 1-455) expressed from a transfected vector
Human CRP promoter; H2.35 cells, expression of CREBH
  expression of luciferase under control of the human CRP promoter: significantly activated
Murine SAP promoter; H2.35 cells, Tm 5 μg/ml 10 hours
  expression of luciferase from the SAP reporter relative to vector control: approximately 14 fold
Murine SAP promoter; H2.35 cells, without Tm
  expression of luciferase from the SAP reporter relative to vector control: approximately 2.5 fold
UPRE motif [2]
  activation of luciferase expression from UPRE reporter relative to vector control: approximately 2 fold
UPRE motif [2]; after Tm treatment, 10 hours
  activation of luciferase expression from UPRE reporter: more than 10 fold
